Data from patent US20210379147A1, “METHOD AND SYSTEM FOR TREATING CANCER UTILIZING TINAGL1” (The Trustees of Princeton University, priority 2018, published 2021).

How the values were obtained:
[1] = Toxicity assessment in r-Tinagl1 treated mice (body weight, CBC, H&E and Alcian blue staining, ALT, AST); type: in vivo; settings: ALT and AST activity
Description: To test if recombinant Tinagl1 protein (r-Tiangl1) treatment would slow tumor progression, full length recombinant human Tinagl1 with 6×His tag at the C-terminus (r-Tinagl1) was expressed in HEK293T cells and r-Tinagl1 was purified from the culture media using Ni^2+-NTA purification system. r-Tinagl1 was used to treat orthotopically implanted mammary tumors.

[2] = system: SUM159-M1a tumor cells; test: 3D in vitro tumor sphere growth assay; type: cell-based, human
Method: To directly test the tumor-specific inhibitory effects of Tinagl1, a 3D in vitro tumor sphere growth assay was performed. Tinagl1-overexpressing SUM159-M1a tumor cells formed significant fewer and smaller spheres.

[3] = system: FAK; test: FN- or EGF-dependent FAK phosphorylation (WB); type: cell-based; settings: tested at 10, 100, 1000 and 10,000 ng/mL
Description: For WB analysis, cells were collected and lysed with IP lysis buffer described above. After boiled with SDS laemmli buffer, the samples were resolved with SDS-PAGE gel and immunoblotted with standard protocols.
FN is the major ligand for integrin α5β1 and αvβ1, and triggers integrin/FAK signal pathway after binding. FN was employed to evaluate the effects of Tinagl1 on the integrin/FAK pathway. […] Likewise, the activation of FAK by FN was attenuated in the cells overexpressing Tinagl1.

[4] = biological target: T1, EGFR extracellular domain recombinant protein (Homo sapiens, UniProt P00533); test: IP between recombinant Tinagl1 and recombinant His-tagged EGFR protein; type: binding; settings: 5 μg each protein in PBS, IP with His antibody
T1 construct: EGFR extracellular domain recombinant protein was purchased from Novoprotein (CI61); purchased Novoprotein CI61
Method: FIG. 13B is an image of a WB assay where 5 μg each of recombinant His-tagged EGFR protein and recombinant Tinagl1 protein were added into 1.5 ml of PBS. 100 μl of combined solution was transferred to a new tube and served as input, and the rest was split into two tubes and IP with 2 μg of IgG or His antibody respectively; the IP samples were washed with PBS and analyzed with WB.
Immunoprecipitation (IP) and western blotting (WB) analysis. For an IP experiment, cells were collected in 1.5 ml EP tube when they reached to 100% confluency in 10 or 15 cm dish as indicated. 1 ml of IP lysis buffer (20 mM Tris pH7.4, 0.15 M NaCl, 1 mM EDTA, 1 mM EGTA, 1% Tx-100) with complete protease inhibitor cocktail (Roche, 14493900) was added and put on ice for 20 min. Meanwhile, culture media was 100× concentrated and mixed with the cell lysates. The samples were centrifuged, 100 μl of the supernatant was transferred to a new tube as input, and the rest was incubated with 2 μg of IgG, anti-HA, anti-Myc, anti-Integrin subunit β1, anti-Integrin subunit α5 or anti-EGFR (as indicated in each experiment) overnight at 4° C. (recombinant proteins may be added at this step as indicated in each experiment). 30 μL of protein A/G agarose beads (Santa Cruz, sc-2003) was then added in each sample for another 2 hours at 4° C. the next day. […] The IP samples were washed with PBS and analyzed with WB. […]

[5] = biological target: T2, Tinagl1-EGFR interaction (Homo sapiens, UniProt P00533); test: Competition IP for Tinagl1-HA / GFP-EGFR interaction in HEK293T lysate; type: binding
T2 construct: host or cells: HEK293T
Method: FIG. 13C is an image of IP and WB assays where HEK293T cells co-expressing Tinagl1-HA and GFP-EGFR were lysed and divided into multiple groups, then PBS or indicated amount of proteins was added into each group, then IP followed by WB assays were performed.
FIG. 13D is a graph quantifying the ability of the indicated protein to compete with Tinagl1-EGFR interaction, by measuring GFP-EGFR level in the groups from FIG. 13C.
Whether Tinagl1 inhibits EGFR activation in a similar manner was tested. […] Whether Tinagl1 and EGF compete with each other to interact with EGFR was tested.

[6] = system: SUM159-M1a cells; test: Cell adhesion assay of SUM159-M1a cells on coated plates (luciferase); type: cell-based, human
Method: FIG. 15A is an graph of attached cells quantified by luciferase assay where a 96-well plate was first coated with 10 μg/ml of FN, then SUM159-M1a cells were incubated with 10 μg/ml of indicated antibodies or r-Tinagl1 at 4 C for 30 min, after when cells were seeded on the plate at 30 k cells per well, and 30 min after seeding, the plate was washed with PBS and quantified by luciferase assay.
Integrin α5β1 and αvβ1 are the major receptors for FN, and the interaction between FN and the integrin receptors triggers the activation of the downstream FAK signal pathway. To test whether Tinagl1 may interfere with cell adhesion mediated by the interaction between FN and its receptors integrin α5β1 and αvβ1, SUM159-M1a cells that were pre-incubated with r-Tinagl1 were seeded on the plates coated with FN or other ECM proteins for various period of time (5 min to 2 hours) and the number of adhered cells were quantified after washing. […] Next, SUM159-M1a cells that were pre-incubated with r-Tiangl1 or various integrin-blocking antibodies were seeded on the plate coated with FN, and relative numbers of attached cells were measured.
96-wells were coated with 10 μg/ml of indicated proteins. […] Cells were then lysed, and luciferase activity which represents cell number was measured using the Glomax 96 microplate luminometer (Promega). […]

B1: r-Tinagl1: full length recombinant human Tinagl1 with 6×His tag at the C-terminus [SEQ ID NO.: 24], expressed in HEK293T cells (protein, listed as Homo sapiens)
chain: MWRCPLGLLLLLPLAGHLALGAQQGRGRRELAPGLHLRGIRDAGGRYCQEQDLCCRGRADDCALPYLGAICYCDLFCNRTVSDCCPDFWDFCLGVPPPFPPIQGCMHGGRIYPVLGTYWDNCNRCTCQENRQWQCDQEPCLVDPDMIKAINQGNYGWQAGNHSAFWGMTLDEGIRYRLGTIRPSSSVMNMHEIYTVLNPGEVLPTAFEASEKWPNLIHEPLDQGNCAGSWAFSTAAVASDRVSIHSLGHMTPVLSPQNLLSCDTHQQQGCRGGRLDGAWWFLRRRGVVSDHCYPFSGRERDEAGPAPPCMMHSRAMGRGKRQATAHCPNSYVNNNDIYQVTPVYRLGSNDKEIMKELMENGPVQALMEVHEDFFLYKGGIYSHTPVSLGRPERYRRHGTHSVKITGWGEETLPDGRTLKYWTAANSWGPAWGERGHFRIVRGVNECDIESFVLGVWGRVGMEDMGHHVDHHHHHH
modifications: C-terminal 6xHis tag
In the case of B1, the “hematologic, GI tract, and liver toxicity” value [1] is reported as “no significant hematologic, GI tract, and liver toxicity”, the “hematologic, GI tract, and liver toxicity” value ([1]; listed as recombinant Tinagl1 protein) is reported as “without causing significant toxicity” and the “number and size of tumor spheres” value [2] is reported as “reduced the number and size of tumor spheres”. For the same molecule, the “FN-dependent activation of FAK signaling (FAK phosphorylation at Tyr397)” value [3] was “significantly reduced FN-dependent activation of FAK signaling”, the “direct interaction with EGFR” value [4] was “confirmed the direct interaction” and the “competition with Tinagl1-HA to interact with EGFR” value [5] was “competed”. For the same molecule, the “cell adhesion on FN or other ECM proteins” value ([6]; 10 μg/ml r-Tinagl1 pre-incubation, 5 min to 2 hours) was “blocked cell adhesion mediated by FN but not other ECM proteins” and the “cell adhesion on FN (antibody blocking assay)” value ([6]; 10 μg/ml, 30 min after seeding) was “significantly reduced cell adhesion”.
